Experimental findings from article PMC8954901, “The Family Keeps on Growing: Four Novel Fungal OYEs Characterized” (International Journal of Molecular Sciences, 2022) are described below.

One data set has as its target T1, AnOYE8 (Aspergillus niger, UniProt A2QBV3).
T1 construct: gene An02g01330
T1 sequence (A2QBV3 1-421): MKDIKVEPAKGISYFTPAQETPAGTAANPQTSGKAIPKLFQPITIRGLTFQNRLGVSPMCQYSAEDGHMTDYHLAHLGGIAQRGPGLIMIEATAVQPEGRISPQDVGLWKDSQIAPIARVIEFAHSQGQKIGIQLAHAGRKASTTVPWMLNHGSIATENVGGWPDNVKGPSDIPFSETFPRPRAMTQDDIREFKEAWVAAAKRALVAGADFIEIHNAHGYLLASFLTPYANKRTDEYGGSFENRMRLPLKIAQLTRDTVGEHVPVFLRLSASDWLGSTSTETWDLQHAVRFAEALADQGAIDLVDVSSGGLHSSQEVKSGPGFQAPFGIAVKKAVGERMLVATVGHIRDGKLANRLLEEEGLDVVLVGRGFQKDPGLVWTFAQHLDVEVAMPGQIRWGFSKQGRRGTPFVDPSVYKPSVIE
Put plainly: X-ray crystal structure, […] Å. Type of data set: binding. Particulars: active site, non-covalently bound; pH 6.5 crystals.

The target of data set [1] is BfOYE1 (Botryotinia fuckeliana B05.10). Put plainly: SEC; analytical gel filtration, Superdex 200 10/300 GL, 150 ug purified protein, Tris-HCl pH 8.0 50 mM, NaCl 150 mM, 1 mL/min; apparent molecular weight from a calibration curve. Background: Size exclusion chromatography separates by hydrodynamic size, large species first.
Data set [2] shares this target. Put plainly: native gel or EMSA. (Mobility shift assays separate free from complexed probe on a gel.)
Data set [3] addresses AnOYE8 (Aspergillus niger CBS 513.88). The experiment in a line: SEC; analytical gel filtration, Superdex 200 10/300 GL, 150 ug purified protein, Tris-HCl pH 8.0 50 mM, NaCl 150 mM, 1 mL/min; apparent molecular weight from a calibration curve.
For data set [4] the target is unchanged. The experiment in a line: crystal structure; N-terminal His6-tagged AnOYE8, 15 mg/mL in Tris-HCl pH 8.0 50 mM; PEG 5000 MME 18% w/v, MES pH 6.5 0.1 M, ammonium sulphate 0.2 M, 293 K; space group C121, four molecules per asymmetric unit.
Data set [5] shares this target. Put plainly: native gel or EMSA; BN-PAGE, NativePAGE 3 to 12% Bis-Tris gel, 12.5 ug of sample from each gel filtration peak, 150 V for 2 h; BSA and HSA for comparison of the MWs.
Substrate in data set [6]: NC(=O)C1=CN([C@@H]2O[C@H](COP(=O)(O)OP(=O)(O)OC[C@H]3O[C@@H](n4cnc5c(N)ncnc54)[C@H](OP(=O)(O)O)[C@@H]3O)[C@@H](O)[C@H]2O)C=CC1
Put plainly: purified protein. Type of data set: biochemical, Botrytis cinerea. Particulars: maleimide 1 mM, Tris-HCl 50 mM pH 8.0, 25 °C, enzyme 20 nM.

Substrate in data set [7]: O=C1C=CCCC1
The experiment in a line: purified protein. The data set is classed as biochemical, Botrytis cinerea. Particulars: NADPH 100 µM, Tris-HCl 50 mM pH 8.0, 25 °C, enzyme 200 nM.

Substrate in data set [8]: O=C1C=CC(=O)N1
The experiment in a line: purified protein. Type of data set: biochemical, Botrytis cinerea. The note with it: NADPH 100 µM, Tris-HCl 50 mM pH 8.0, 25 °C, enzyme 20 nM.

Substrate in data set [9]: CC1=CCCCC1=O
Put plainly: purified protein. The data set is classed as biochemical, Botrytis cinerea. Particulars: NADPH 100 µM, Tris-HCl 50 mM pH 8.0, 25 °C, enzyme 200 nM.

Substrate in data set [10]: O=C1C=CCC1
Put plainly: purified protein. Type of data set: biochemical, Botrytis cinerea. The note with it: NADPH 100 µM, Tris-HCl 50 mM pH 8.0, 25 °C, enzyme 200 nM.

Substrate in data set [11]: C=CC(=O)CCCCC
The experiment in a line: purified protein. Type of data set: biochemical, Botrytis cinerea. The note with it: NADPH 100 µM, Tris-HCl 50 mM pH 8.0, 25 °C, enzyme 200 nM.

Substrate in data set [12]: NC(=O)C1=CN([C@@H]2O[C@H](COP(=O)(O)OP(=O)(O)OC[C@H]3O[C@@H](n4cnc5c(N)ncnc54)[C@H](OP(=O)(O)O)[C@@H]3O)[C@@H](O)[C@H]2O)C=CC1
Put plainly: purified protein. The data set is classed as biochemical, Aspergillus niger. The note with it: maleimide 1 mM, Tris-HCl 50 mM pH 8.0, 25 °C, enzyme 20 nM.

Substrate in data set [13]: O=C1C=CC(=O)N1
The experiment in a line: purified protein. Type of data set: biochemical, Aspergillus niger. The note with it: NADPH 100 µM, Tris-HCl 50 mM pH 8.0, 25 °C, enzyme 20 nM.

With `Cc1cc2nc3c(=O)[nH]c(=O)nc-3n(C[C@H](O)[C@H](O)[C@H](O)COP(=O)(O)O)c2cc1C` [FMN], the “X-ray crystal structure, 2.8 Å” value at AnOYE8 is reported as “AnOYE8 accommodated a non-covalently bound FMN cofactor molecule”.
Consider BfOYE1 (enzyme), for which the stoichiometry N in [1] and in data set [2] was 2 throughout.
With AnOYE8 (enzyme), the stoichiometry N in [3], in [4] and in data set [5] was 2 each time.

B1: BfOYE4 (Botrytis cinerea B05.10) (protein)
chain: MSTPTPHPQHGVPCGTSTPRPGLLNTPAPGVPFYTPLQSPPSGTALHLSPSTPKLFTPLKIRSLTLQNRIMLSPMCQYSASNGHFTPWHMAHLGGIISRGPGLSMVEATSVLPEGRITPEDSGLWLDSQGDKLKEVVQFAHSQGQLIGIQLSHAGRKASMVAPWLDRSAVATEEAGGWPTKVKGPSAIPYDEHHYKPSAMTLEDIQEFKDAWAASLKRALKAGFDVIEIHNAHGYLLHEFVSPVSNKRTDQYGGSFENRIRLTLEIVEITRKIIPESMPLFLRISATDWLDYEGFGEESWTVADSARLAGILADRGVDLMDVSSGANHPRQKITAGLGYQAPFAKEIKRVVGERMLVGTVGMIGSGRQAEGLLSGMGGERGVDEGEEEEGKGTELDLVIVARGFQKNPGLVWEWAEELGVRIMVAHQMRWGFRGKAGGH
notes: N-terminal His6 tag, E. coli BL21(DE3), 421 residues, dimer in crystal, several oligomeric species in solution; cloning reported elsewhere
Regarding B1, the Km was determined as 0.13 ± 0.02 mM in the data set “purified protein [6]”; 0.65 ± 0.09 mM in “purified protein [7]”; 0.07 ± 0.01 mM in the data set “purified protein [8]”; 1.83 ± 0.18 mM in “purified protein [9]”; 1.07 ± 0.12 mM in the data set “purified protein [10]”; 2.72 ± 0.50 mM in the data set “purified protein [11]”. The kcat in “purified protein [6]” was 89.2 ± 3.37 s⁻¹; in “purified protein [7]” it was 2.57 ± 0.07 s⁻¹; in the data set “purified protein [8]”, 36.3 ± 1.12 s⁻¹; in the data set “purified protein [9]”, 0.56 ± 0.013 s⁻¹; in the data set “purified protein [10]”, 1.06 ± 0.03 s⁻¹; in the data set “purified protein [11]” it was 22.6 ± 1.14 s⁻¹. The specificity constant (kcat/Km) turned out to be 686000 M⁻¹ s⁻¹ in “purified protein [6]”; 3900 M⁻¹ s⁻¹ in “purified protein [7]”; 519000 M⁻¹ s⁻¹ in “purified protein [8]”; 300 M⁻¹ s⁻¹ in “purified protein [9]”; 1000 M⁻¹ s⁻¹ in the data set “purified protein [10]”; 8300 M⁻¹ s⁻¹ in “purified protein [11]”.

B2: AnOYE2 (Aspergillus niger CBS 513.88) (protein)
chain: MCSKLFQPLQIGKTNLEHRVVMAPLTRFRADSQHVPLPMATTYYEQRASVPGTLLIAEATLISPSAGGVPHAPGVWSEEQVNGWKKITEAVHKKGSFIFCQLIAAGRAADPAQLHAEGGFMLHAPSPIPIEPGMPVPKELDEIEVQEIINDFAMAAKNAIRAGFDGVEIHGANGYLVDQFLQDVSNKRNDKWGGSIPNRARFGLEVAKAVADAIGADRLGFRLSPWNTWQSMKMVDPVPQFTYFVERLQQLGLAYLHVIESRVINNVDCEKEGSIKFLLDVWGKSAPVIVAGGYRPENVENALEEEYKDYKVAVAFGRHFIANPDLPFRIRHDIHLNPYDRESFYTPLQENGYTDYPFSAEFIKSKTKC
Take B2: in “purified protein [12]”, the Km is on record as 0.037 ± 0.01 mM, the catalytic constant (kcat) was determined as 8 ± 0.4 s⁻¹ and the kcat/Km was 216000 M⁻¹ s⁻¹. In the data set “purified protein [13]”, the Michaelis-Menten constant (Km) worked out at 0.01 ± 0.00 mM, the kcat came to 7.38 ± 0.66 s⁻¹ and the specificity constant (kcat/Km) was 738000 M⁻¹ s⁻¹.

Usually stoichiometry N stands for a count of units in the complex or per binding partner. As usually defined, the Km is the concentration of substrate that gives half-maximal velocity. The kcat is the number of substrate molecules converted per active site and unit of time at saturation. One may read the kcat/Km as the second-order rate constant that governs catalysis at low substrate concentration.
